Paper PMC10318897, “The structure of Leptospira interrogans GAPDH sheds light into an immunoevasion factor that can target the anaphylatoxin C5a of innate immunity” (Frontiers in Immunology, 2023)

B1: Leptospira interrogans glyceraldehyde-3-phosphate dehydrogenase (GAPDH) (enzyme)
chain: MTRIAINGFGRIGRLVFRAGIKDPNLEFVAINDLVTPDNLAYLLKYDSTHGRFQGTVEHTEKELIVDGKKILCVSERDPEKLPWKDLKVDYVIESTGLFTDRVGAEKHIKAGAKKVVISAPAKDKDIPTFVMGVNNEKYNPSNDHIVSNASCTTNCLAPIVKVVLDNWGIEEGLMTTIHATTATQPTVDGPSKKDFRGGRGAMQNIIPASTGAAKAVGLCIPEVNGKLTGMSFRVPTPDVSVVDLTVRTTKETSLKEISAKMKAASEGAMKGILGYTEDMVVSNDFVSSTLSSIFDMDACIELNSRFFKLVSWYDNEMGYSNRVLDLIRYMAKKG
notes: also called LiGAPDH; L. interrogans GAPDH; source: E. coli Rosetta(DE3), purified (HisTrap, Superdex 200 SEC); not shown: His6, N-terminal, kept
B2: biotinylated-C5a (ligand)
chain: TLQKKIEEIAAKYKHSVVKKCCYDGACVNNDETCEQRAARISLGPRCIKAFTECCVVASQLRANISHKDMQLGR
modifications: biotinylated (site not stated)
notes: also called immobilized C5a; source: bought: Abvance Biotech (ABVC5ARBIO1)

Assays:
[1] = molecular target: the molecule itself; test: SEC; HiLoad 16/60 Superdex 200 pg in 10 mM HEPES-NaOH (pH 7.4), 150 mM NaCl, 3.4 mM EDTA; elution volume compared with a calibration curve
[2] = molecular target: B1; test: BLI; conditions: both partners purified

Binder	stoichiometry N [1]	kon [2] [M⁻¹ s⁻¹]
B1	4	–
B2	–	37.3 ± 0.2
